# Numbering of substitutions follows the chain as printed.
# T1: CD19 (UniProt P15391 20-556, limits assumed)
# T1 construct: whole, on cells
# T1 sequence (looked up): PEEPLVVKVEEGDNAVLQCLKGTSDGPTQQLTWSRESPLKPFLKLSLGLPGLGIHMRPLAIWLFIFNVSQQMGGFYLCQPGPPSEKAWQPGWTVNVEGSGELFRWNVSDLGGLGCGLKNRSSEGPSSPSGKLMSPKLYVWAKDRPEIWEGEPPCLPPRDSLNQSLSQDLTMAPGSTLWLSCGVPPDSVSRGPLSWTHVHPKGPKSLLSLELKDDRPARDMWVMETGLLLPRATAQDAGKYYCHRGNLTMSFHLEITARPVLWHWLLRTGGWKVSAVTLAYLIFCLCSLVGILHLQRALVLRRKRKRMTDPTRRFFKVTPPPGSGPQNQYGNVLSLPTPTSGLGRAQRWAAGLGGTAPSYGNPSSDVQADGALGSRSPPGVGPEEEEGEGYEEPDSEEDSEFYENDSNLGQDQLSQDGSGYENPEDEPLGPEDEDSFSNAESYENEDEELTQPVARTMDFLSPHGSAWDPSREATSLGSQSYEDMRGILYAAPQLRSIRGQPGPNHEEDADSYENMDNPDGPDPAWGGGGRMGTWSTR
# B1: Ly2280 (bispecific antibody)
# chain 1: not shown
# chain 2: QVTLKESGPALVKPTQTLTLTCTFSGFSLSTSGTCVSWIRQPPGKALEWLATICWEDSKGYNPSLKSRLTISKDTSKNQAVLTMTNMDPVDTATYYCARREDSGYFWFPYWGQGTLVTVSSASTKGPSVFPLAPSSKSTSGGTAALGCLVKDYFPEPVTVSWNSGALTSGVHTFPAVLQSSGLYSLSSVVTVPSSSLGTQTYICNVNHKPSNTKVDKKVEPKSCGGGGSGGGGSGGGGSGGGGSDIQMTQSPSSVSASVGDRVTITCRASQGIYSWLAWYQQKPGKAPNLLIYTASTLQSGVPSRFSGSGSGTDFTLTISSLQPEDFATYYCQQANIFPLTFGGGTKVEIKGGGGSDKTHTCPPCPAPEAAGPSVFLFPPKPKDTLMISRTPEVTCVVVDVSHEDPEVKFNWYVDGVEVHNAKTKPREEQYNSTYRVVSVLTVLHQDWLNGKEYKCKVSNKALPAPIEKTISKAKGQPREPQVYTLPPSREEMTKNQVSLSCAVKGFYPSDIAVEWESNGQPENNYKTTPPVLDSDGSFFLVSKLTVDKSRWQQGNVFSCSVMHEALHNRFTQKSLSLSPG
# light: NIQMTQSPSSLSASVGDRVTITCKAGQNVNNYLAWYQQKPGKAPKVLIFNANSLQTGVPSRFSGSGSGTDFTLTISSLQPEDFATYYCQQYNSWPTFGGGTKVEIKRTVAAPSVFIFPPSDEQLKSGTASVVCLLNNFYPREAKVQWKVDNALQSGNSQESVTEQDSKDSTYSLSSTLTLSKADYEKHKVYACEVTHQGLSSPVTKSFNRGEC
# notes: PD-1 Fabs, central CD40 Fv
# B2: Ly238 (antibody, V domains shown)
# VH: QVQLQQSGAELVRPGSSVKISCKASGYAFSSYWMNWVKQRPGQGLEWIGQIWPGDGDTNYNGKFKGKATLTADESSSTAYMQLSSLASEDSAVYFCARRETTTVGRYYYAMDYWGQGTTVTVSS
# VL: DIQLTQSPASLAVSLGQRATISCKASQSVDYDGDSYLNWYQQIPGQPPKLLIYDASNLVSGIPPRFSGSGSGTDFTLNIHPVEKVDAATYHCQQSTEDPWTFGGGTKLEIK
# notes: Parent mAb; also called Anti-CD19 Ly238; parent anti-CD19 mAb
# B3: Ly1966 (other)
# chain 1: QVQLQQSGAELVRPGSSVKISCKASGYAFSSYWMNWVKQRPGQGLEWIGQIWPGDGDTNYNGKFKGKATLTADESSSTAYMQLSSLASEDSAVYFCARRETTTVGRYYYAMDYWGQGTTVTVSSASTKGPSVFPLAPSSKSTSGGTAALGCLVKDYFPEPVTVSWNSGALTSGVHTFPAVLQSSGLYSLSSVVTVPSSSLGTQTYICNVNHKPSNTKVDKKVEPKSCGGGGSGGGGSGGGGSGGGGSEVQLVESGGGLVQPGGSLRLSCAASGFTFSTYAMNWVRQAPGKGLEWVGRIRSKYNNYATYYADSVKGRFTISRDDSKNSLYLQMNSLKTEDTAVYYCVRHGNFGNSYVSWFAYWGQGTLVTVSSGGGGSDKTHTCPPCPAPEAAGPSVFLFPPKPKDTLMISRTPEVTCVVVDVSHEDPEVKFNWYVDGVEVHNAKTKPREEQYNSTYRVVSVLTVLHQDWLNGKEYKCKVSNKALPAPIEKTISKAKGQPREPQVYTLPPSREEMTKNQVSLWCLVKGFYPSDIAVEWESNGQPENNYKTTPPVLDSDGSFFLYSKLTVDKSRWQQGNVFSCSVMHEALHNHYTQKSLSLSPGGGGGSGGGGSGGGGSGGGGSQVQLVQSGAEVKKPGASVKVSCKASGYTFAGFEMHWVRQAPGQGLEWMGAIDPKTGGTDYNQKFKDRVTMTRDTSISTAYMELSRLRSDDTAVYYCARDLGYFDVWGQGTLVTVSS
# chain 2: QVQLQQSGAELVRPGSSVKISCKASGYAFSSYWMNWVKQRPGQGLEWIGQIWPGDGDTNYNGKFKGKATLTADESSSTAYMQLSSLASEDSAVYFCARRETTTVGRYYYAMDYWGQGTTVTVSSASTKGPSVFPLAPSSKSTSGGTAALGCLVKDYFPEPVTVSWNSGALTSGVHTFPAVLQSSGLYSLSSVVTVPSSSLGTQTYICNVNHKPSNTKVDKKVEPKSCGGGGSGGGGSGGGGSGGGGSQAVVTQEPSLTVSPGGTVTLTCRSSTGAVTTSNYANWVQQKPGQAPRGLIGGTNKRAPWTPARFSGSLLGGKAALTITGAQAEDEADYYCALWYSNLWVFGGGTKLTVLGGGGSDKTHTCPPCPAPEAAGPSVFLFPPKPKDTLMISRTPEVTCVVVDVSHEDPEVKFNWYVDGVEVHNAKTKPREEQYNSTYRVVSVLTVLHQDWLNGKEYKCKVSNKALPAPIEKTISKAKGQPREPQVYTLPPSREEMTKNQVSLSCAVKGFYPSDIAVEWESNGQPENNYKTTPPVLDSDGSFFLVSKLTVDKSRWQQGNVFSCSVMHEALHNRFTQKSLSLSPGGGGGSGGGGSGGGGSGGGGSDIQMTQSPSSLSASVGDRVTITCRASQDIRSNLNWYQQKPGGAVKLLIYYTSRLHSGVPSRFSGSGSGTDYTLTISSLQPEDFATYFCQQSEKLPRTFGGGTKVEIR
# light: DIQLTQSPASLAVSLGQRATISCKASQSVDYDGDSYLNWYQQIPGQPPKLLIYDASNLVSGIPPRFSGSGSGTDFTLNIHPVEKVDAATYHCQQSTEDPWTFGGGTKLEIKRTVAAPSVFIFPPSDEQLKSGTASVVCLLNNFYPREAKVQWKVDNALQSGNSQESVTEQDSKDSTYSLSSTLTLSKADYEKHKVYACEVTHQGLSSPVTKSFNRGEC
# notes: Tri-specific antibody CD19 (two Fabs) / CD3 (central Fv) / CD137 (terminal Fv)
# B4: Ly1967 (other)
# chain 1: B3 chain 1
# chain 2: B3 chain 2 with R575H, F576Y
# light: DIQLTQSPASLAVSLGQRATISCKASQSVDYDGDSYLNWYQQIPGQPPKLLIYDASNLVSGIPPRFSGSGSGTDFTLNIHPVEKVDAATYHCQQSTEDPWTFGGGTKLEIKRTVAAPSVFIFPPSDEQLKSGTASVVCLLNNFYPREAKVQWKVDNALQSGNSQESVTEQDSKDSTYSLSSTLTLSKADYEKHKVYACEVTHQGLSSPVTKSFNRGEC
# notes: as for B3
# B5: Ly2278 (bispecific antibody)
# chain 1: QVQLQQSGAELVRPGSSVKISCKASGYAFSSYWMNWVKQRPGQGLEWIGQIWPGDGDTNYNGKFKGKATLTADESSSTAYMQLSSLASEDSAVYFCARRETTTVGRYYYAMDYWGQGTTVTVSSASTKGPSVFPLAPSSKSTSGGTAALGCLVKDYFPEPVTVSWNSGALTSGVHTFPAVLQSSGLYSLSSVVTVPSSSLGTQTYICNVNHKPSNTKVDKKVEPKSCGGGGSGGGGSGGGGSGGGGSEVQLVESGGGLVQPGGSLRLSCAASGFTFSTYAMNWVRQAPGKGLEWVGRIRSKYNNYATYYADSVKGRFTISRDDSKNSLYLQMNSLKTEDTAVYYCVRHGNFGNSYVSWFAYWGQGTLVTVSSGGGGSDKTHTCPPCPAPEAAGPSVFLFPPKPKDTLMISRTPEVTCVVVDVSHEDPEVKFNWYVDGVEVHNAKTKPREEQYNSTYRVVSVLTVLHQDWLNGKEYKCKVSNKALPAPIEKTISKAKGQPREPQVYTLPPSREEMTKNQVSLWCLVKGFYPSDIAVEWESNGQPENNYKTTPPVLDSDGSFFLYSKLTVDKSRWQQGNVFSCSVMHEALHNHYTQKSLSLSPG
# chain 2: QVQLQQSGAELVRPGSSVKISCKASGYAFSSYWMNWVKQRPGQGLEWIGQIWPGDGDTNYNGKFKGKATLTADESSSTAYMQLSSLASEDSAVYFCARRETTTVGRYYYAMDYWGQGTTVTVSSASTKGPSVFPLAPSSKSTSGGTAALGCLVKDYFPEPVTVSWNSGALTSGVHTFPAVLQSSGLYSLSSVVTVPSSSLGTQTYICNVNHKPSNTKVDKKVEPKSCGGGGSGGGGSGGGGSGGGGSQAVVTQEPSLTVSPGGTVTLTCRSSTGAVTTSNYANWVQQKPGQAPRGLIGGTNKRAPWTPARFSGSLLGGKAALTITGAQAEDEADYYCALWYSNLWVFGGGTKLTVLGGGGSDKTHTCPPCPAPEAAGPSVFLFPPKPKDTLMISRTPEVTCVVVDVSHEDPEVKFNWYVDGVEVHNAKTKPREEQYNSTYRVVSVLTVLHQDWLNGKEYKCKVSNKALPAPIEKTISKAKGQPREPQVYTLPPSREEMTKNQVSLSCAVKGFYPSDIAVEWESNGQPENNYKTTPPVLDSDGSFFLVSKLTVDKSRWQQGNVFSCSVMHEALHNRFTQKSLSLSPG
# light: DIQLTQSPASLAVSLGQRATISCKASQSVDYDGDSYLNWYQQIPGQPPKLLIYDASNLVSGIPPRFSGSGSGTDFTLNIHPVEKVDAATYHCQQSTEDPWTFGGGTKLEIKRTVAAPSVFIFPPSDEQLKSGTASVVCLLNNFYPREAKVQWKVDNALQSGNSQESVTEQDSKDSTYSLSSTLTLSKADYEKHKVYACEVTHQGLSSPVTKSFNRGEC
# notes: Bispecific CD19 (two Fabs) / CD3 (central Fv)
# B6: Ly2326 (bispecific antibody, human IgG1, kappa)
# chain 1: QVQLQQSGAELVRPGSSVKISCKASGYAFSSYWMNWVKQRPGQGLEWIGQIWPGDGDTNYNGKFKGKATLTADESSSTAYMQLSSLASEDSAVYFCARRETTTVGRYYYAMDYWGQGTTVTVSSASTKGPSVFPLAPSSKSTSGGTAALGCLVKDYFPEPVTVSWNSGALTSGVHTFPAVLQSSGLYSLSSVVTVPSSSLGTQTYICNVNHKPSNTKVDKKVEPKSCDKTHTCPPCPAPEAAGPSVFLFPPKPKDTLMISRTPEVTCVVVDVSHEDPEVKFNWYVDGVEVHNAKTKPREEQYNSTYRVVSVLTVLHQDWLNGKEYKCKVSNKALPAPIEKTISKAKGQPREPQVYTLPPSREEMTKNQVSLWCLVKGFYPSDIAVEWESNGQPENNYKTTPPVLDSDGSFFLYSKLTVDKSRWQQGNVFSCSVMHEALHNHYTQKSLSLSPGGGGGSGGGGSGGGGSGGGGSQVQLVQSGAEVKKPGASVKVSCKASGYTFAGFEMHWVRQAPGQGLEWMGAIDPKTGGTDYNQKFKDRVTMTRDTSISTAYMELSRLRSDDTAVYYCARDLGYFDVWGQGTLVTVSS
# chain 2: QVQLQQSGAELVRPGSSVKISCKASGYAFSSYWMNWVKQRPGQGLEWIGQIWPGDGDTNYNGKFKGKATLTADESSSTAYMQLSSLASEDSAVYFCARRETTTVGRYYYAMDYWGQGTTVTVSSASTKGPSVFPLAPSSKSTSGGTAALGCLVKDYFPEPVTVSWNSGALTSGVHTFPAVLQSSGLYSLSSVVTVPSSSLGTQTYICNVNHKPSNTKVDKKVEPKSCDKTHTCPPCPAPEAAGPSVFLFPPKPKDTLMISRTPEVTCVVVDVSHEDPEVKFNWYVDGVEVHNAKTKPREEQYNSTYRVVSVLTVLHQDWLNGKEYKCKVSNKALPAPIEKTISKAKGQPREPQVYTLPPSREEMTKNQVSLSCAVKGFYPSDIAVEWESNGQPENNYKTTPPVLDSDGSFFLVSKLTVDKSRWQQGNVFSCSVMHEALHNRFTQKSLSLSPGGGGGSGGGGSGGGGSGGGGSDIQMTQSPSSLSASVGDRVTITCRASQDIRSNLNWYQQKPGGAVKLLIYYTSRLHSGVPSRFSGSGSGTDYTLTISSLQPEDFATYFCQQSEKLPRTFGGGTKVEIR
# light: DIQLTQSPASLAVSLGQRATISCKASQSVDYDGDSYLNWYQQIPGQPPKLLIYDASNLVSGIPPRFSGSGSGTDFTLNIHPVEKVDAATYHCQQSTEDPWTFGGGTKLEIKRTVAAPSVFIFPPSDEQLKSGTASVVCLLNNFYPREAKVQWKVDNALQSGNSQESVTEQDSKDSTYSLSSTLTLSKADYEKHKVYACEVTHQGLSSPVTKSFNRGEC
# notes: Bispecific CD19 (two Fabs) / CD137 (terminal Fv)
# Assays:
# [1] = target: T2, CD40 (human, UniProt P25942 21-193); assay: CD40 binding (method not given)
# T2 construct: In the reporter assay it is whole, on GS-H2-huCD40 cells; also called huCD40
# T2 sequence (P25942 21-193 limits assumed): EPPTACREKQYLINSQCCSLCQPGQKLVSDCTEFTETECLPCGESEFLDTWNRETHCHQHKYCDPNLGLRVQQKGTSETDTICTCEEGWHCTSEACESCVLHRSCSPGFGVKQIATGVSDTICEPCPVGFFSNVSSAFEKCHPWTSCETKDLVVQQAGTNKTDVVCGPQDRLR
# [2] = target: T1, CD19; assay: FCM or ELISA (graded summary table)
# [3] = target: T3, CD137 (UniProt Q07011 24-186, limits assumed); assay: FCM or ELISA (graded summary table)
# T3 construct: also called 4-1BB
Binder,EC50 [1] [µg/mL],binding result [2],binding result [3]
B1,3.17,–,–
B2,–,binds,–
B3,–,–,binds
B4,–,–,binds
B5,–,binds,–
B6,–,binds,binds
